Results from US20250154242A1 (ADAFRE BIOSCIENCES, published 2025).

Molecular target: TNFR
Test: cell-based or functional assay

B1: cynomolgus TNFα (ligand)
chain: VRSSSRTPSDKPVAHVVANPQAEGQLQWLNRRANALVANGVELTDNQLVVPSEGLYLIYSQVLFKGQGCPSNHVLLTHTISRIAVSYQTKVNLLSAIKSPCQRETPEGAEAKPWYEPIYLGGVFQLEKGDRLSAEINLPDYLDFAESGQVYFGIIAL
modifications: biotinylated in the binding ELISA (sites not given)
- EC50, stimulation of HEK-Blue TNFα cells (SEAP reporter): 3.1 pM
